Patent US20160333110A1 (CHIOME BIOSCIENCE, published 2016)

Target: T1, recombinant hTACSTD2-Fc-His protein (Creative BioMart) (human, UniProt P09758 27-274, limits assumed)
T1 construct: bought protein; also called hTROP-2 (low-density antigen-coated ELISA); not shown: Fc part of the bought fusion protein; not described; His tag
T1 sequence: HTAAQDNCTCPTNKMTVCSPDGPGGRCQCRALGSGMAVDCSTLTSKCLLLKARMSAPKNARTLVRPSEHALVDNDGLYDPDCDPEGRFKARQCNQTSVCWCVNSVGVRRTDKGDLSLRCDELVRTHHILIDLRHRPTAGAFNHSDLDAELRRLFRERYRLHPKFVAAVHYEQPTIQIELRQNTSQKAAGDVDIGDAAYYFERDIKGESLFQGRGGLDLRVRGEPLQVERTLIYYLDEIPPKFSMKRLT
Experiment: low-density antigen-coated ELISA, plate coated with 0.1 µg/mL hTACSTD2-Fc-His, purified antibodies; HuK5-70-2 (R44G mutant); low-density ELISA, 0.1 µg/mL hTROP-2 coat

EC50: 0.0114 µg/mL
B1: HuK5-70-2 antibody (HuK5-70 R44G mutant antibody) (antibody, V domains shown)
VH: QVQLVQSGAEVKKPGASVKVSCKASGYTFTIYWINWVRQAPGQGLEWIGNIYPSDSYTNYNQKFKDKATLTVDTSASTAYMELSSLRSEDTAVYYCTRTSMADYWGQGTLVTVSS
VL: EIVLTQSPATLSLSPGERATLSCRASQSIGTSIHWYQQKPGQAPRLLIKYASESISGIPARFSGSGSGTDFTLTISSLEPEDFAVYYCQQSNSWPFTFGQGTKVEIK
notes: also called HuK5-70 VH R44G; HuK5-70 VH2
